Experiments:
[1] = molecular target: T1, truncated peptide GLPVPGCWH; experiment: competitive ELISA (PRO-C23 assay), peptide inhibition test
T1 peptide: GLPVPGCWH
Method: (§1) ELISA-plates used for the assay development were Streptavidin-coated from Roche (cat.: 11940279). All ELISA plates were analyzed with the ELISA reader from Molecular Devices, SpectraMax M, (CA, USA). The selected monoclonal antibody was labelled with horseradish peroxidase (HRP) using the Lightning link HRP labeling kit according to the instructions of the manufacturer (Innovabioscience, Babraham, Cambridge, UK). A 96-well streptavidin plate was coated with biotin-[…] (SEQ. ID No. 1) (Genscript, USA) and incubated 30 minutes at 20° C. 20 μL of standard peptide or samples were added to appropriate wells, followed by 100 μL of HRP conjugated monoclonal antibody 10F6, and incubated 20 hour at 4° C. Finally, 100 μL tetramethylbenzidine (TMB) (Kem-En-Tec cat.4380H) was added and the plate was incubated 15 minutes at […] in the dark. All the above incubation steps included shaking at 300 rpm. After each incubation step, the plate was washed five times. The TMB reaction was stopped by adding 100 μL of stopping solution (1% H₂SO₄) and measured at 450 nm with 650 nm as the reference.
(§2) Like type XXIII collagen, type XIII and XXV collagens are also transmembrane collagens and share highly similar sequences in their C-terminus (FIG. 1A). To fully investigate the specificity of the antibody, a series of peptides were synthesized and included in the inhibition test. […] (SEQ. ID No. 5) (FIG. 1B).

[2] = molecular target: T2, elongated peptide GLPVPGCWHKA; experiment: as above
T2 peptide: GLPVPGCWHKA
Method: as §1, §2

[3] = molecular target: T3, type XXV collagen C-terminal peptide GLPMPGCWQK; experiment: as above
T3 construct: Synthetic peptide (Genscript); also called peptide from type XXV collagen; deselection peptide
T3 peptide: GLPMPGCWQK
Method: as §1, §2

[4] = molecular target: T4, type XIII collagen C-terminal peptide GLPVQGCWNK; experiment: as above
T4 construct: Synthetic peptide (Genscript); also called peptide from type XIII collagen; deselection peptide
T4 peptide: GLPVQGCWNK
Method: as §1, §2

[5] = molecular target: T5, selection peptide GLPVPGCWHK, the last 10 amino acids of the C-terminus of type XXIII collagen alpha 1 chain …; experiment: figure legend (FIG. 1A/1B), PRO-C23 competitive ELISA
T5 construct: Synthetic peptide (Genscript); also called target peptide; standard peptide
T5 peptide: GLPVPGCWHK
Method: as §1, §2

B1: monoclonal antibody 10F6 (antibody, mouse IgG2b, kappa, V domains shown)
VH: EVKLVESGGGLVKPGGSLKLSCAASGFTFSSYAMSWVRQTPEKRLAWVASISTAGRTYYPDTVRGRITISRDNARNILYLQMSSLRSEDTAIYYCARPDYDYDGYINWGQGTLVTVSA
VL: DIVMTQAAFSNPVTLGTSAYISCRSSKSLLHSNGVTYLYWYLQKPGQSPQLLIYQMSNLASGVPDRFSSSGSGTDFTLRISRVEAEDVGVYYCAQNLELPLTFGAGTKLELKR
notes: Mouse (Balb/C) hybridoma antibody purified on an IgG column; also called PRO-C23 antibody 10F6; PRO-C23 antibody
binding result [1]: no binding
binding result [2]: no binding
binding result [3]: no binding
binding result [4]: no binding
binding result [5]: binds

Reference: patent US20220227848A1 (NORDIC BIOSCIENCE A S, published 2022)
